Test results: the supplement of paper PMC10724198
± gives the standard deviation of the averaged measurements.

system: Saccharomyces cerevisiae; test: protein stability index of tFT-peptide fusion (C-terminal peptide) (PSI (0-1 scale)); higher = more stable (slower turnover); conditions: genetic background: wild type; temperature: 30 C
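Also: PSI is a weighted mean of sequencing reads over stability bins, variants kept only with over 10 reads, mCherry proximal and sfGFP distal, peptide attached via GGGS linker.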

Sequence | protein stability index
VGRGGPGVGGSW | 0.736 ± 0.043
VGRVNRNERCQR | 0.587 ± 0.022
VGSSGDEWGRYG | 0.7332 ± 0.0046
VGVCCLSGDGFV | 0.6889 ± 0.0048
VGVGGEQISIEY | 0.723 ± 0.054
VGVGWAALRWYG | 0.6761 ± 0.0047
VGVIREGKENGN | 0.656 ± 0.023
VGVSGAGFSWGG | 0.712 ± 0.0095
VGVVGGRWCGRG | 0.648 ± 0.0099
VGVVLNEPYSQE | 0.702 ± 0.011
VGVWWWWCFGSW | 0.595 ± 0.069
VGWAGHVWFWWG | 0.683 ± 0.064
VGWFELWGVSSG | 0.76 ± 0.052
VGWHFPDGVVDC | 0.8 ± 0.12
VGWQGRWWVWGG | 0.5679 ± 0.005
VGWVLGCRGLGW | 0.694 ± 0.067
VHDPLLPIFLIR | 0.684 ± 0.042
VHFGVLSLGKRH | 0.769 ± 0.16
VHRMWINARDCV | 0.676 ± 0.05
VIFCVGRFSGGS | 0.645 ± 0.085
VIFIRCFNFQDG | 0.614 ± 0.052
VILFINRIDDGK | 0.616 ± 0.057
VIQMVIYEKDQR | 0.681 ± 0.04
VIRQPSSKLWIQ | 0.6559 ± 0.0057
VISLFSSLCSRL | 0.797 ± 0.05
VIVHFIWPSVGR | 0.652 ± 0.03

Sequence | protein stability index
VKASPSDGGIVP | 0.725 ± 0.035
VKESILVGRYDC | 0.709 ± 0.016
VKKSTPIKKPQT | 0.651 ± 0.062
VKPVLEILKTKT | 0.663 ± 0.037
VKSMVCQGHLGI | 0.722 ± 0.043
VKVKRCVRKVGG | 0.687 ± 0.046
VLANAAGLEGFA | 0.681 ± 0.041
VLCVDQVEVSFV | 0.678 ± 0.03
VLDCRDVSCHVL | 0.661 ± 0.0081
VLDPRGEFFSHP | 0.657 ± 0.044
VLFLESWLRFRT | 0.623 ± 0.073
VLGSYFNGIWLF | 0.534 ± 0.019
VLGVDVIQVCPI | 0.682 ± 0.018
VLGWGSKCLVGS | 0.7 ± 0.035
VLHGFGSLRDRV | 0.717 ± 0.017
VLLAAFLLPGLR | 0.634 ± 0.033
VLLQDLSYLIGQ | 0.707 ± 0.065
VLLSSPSLLFFE | 0.703 ± 0.039
VLLSTLHLRGFG | 0.537 ± 0.04
VLMDVVGLGSSS | 0.683 ± 0.019
VLNRFENRNSKA | 0.7098 ± 0.0035
VLPLRPGRKLSG | 0.664 ± 0.054
VLPVLTWWGELG | 0.733 ± 0.018
VLRCVLTYGKPS | 0.673 ± 0.031
VLRGYRRVGVPP | 0.616 ± 0.016
VLRSSFYLSFPR | 0.611 ± 0.013

Sequence | protein stability index
VLRSTQGAINRI | 0.717 ± 0.02
VLSFFQCSWVLL | 0.574 ± 0.057
VLSFPYLSRKCI | 0.546 ± 0.037
VLSGAPGLIVYA | 0.602 ± 0.043
VLSLPPLFRTSA | 0.636 ± 0.0086
VLTSRCGLLFVL | 0.62 ± 0.044
VLTSSVLPSFFP | 0.627 ± 0.018
VLVPVDRCGYIG | 0.619 ± 0.11
VLWIVDLFACEG | 0.585 ± 0.0037
VLYPVISVLTTL | 0.629 ± 0.011
VMKAVNKTKRNV | 0.664 ± 0.041
VMVTMGNMDSEA | 0.635 ± 0.031
VMVYLRSPLLDR | 0.748 ± 0.059
VNAGAPGVLAWV | 0.739 ± 0.021
VNAVLFWPRQLS | 0.619 ± 0.013
VNFGWWVVGSRS | 0.685 ± 0.062
VNHVVRFFFSSH | 0.676 ± 0.019
VPAALAGADCSP | 0.763 ± 0.085
VPAGDPPGAWKA | 0.746 ± 0.025
VPALLPLLPSPP | 0.712 ± 0.03
VPFPHTHPLLTP | 0.757 ± 0.054
VPITLRFSFLTP | 0.598 ± 0.073
VPPCESLSALSS | 0.707 ± 0.034
VPPPLPSPPSHP | 0.761 ± 0.038
VPPPLTSPSWHF | 0.6825 ± 0.0036
VPRLARTRPKHA | 0.641 ± 0.042

Sequence | protein stability index
VPRPLPPSPLLV | 0.644 ± 0.13
VPRPPGPPPGPV | 0.667 ± 0.053
VPRTGSLHARLP | 0.715 ± 0.03
VPVISYVQTSIA | 0.558 ± 0.033
VPVMVVCVPSKE | 0.715 ± 0.035
VQDALPLLVPPF | 0.762 ± 0.021
VQGEGVVAISMT | 0.712 ± 0.021
VQGGSSCLWSVR | 0.72 ± 0.01
VQGIKFRNSVEV | 0.665 ± 0.044
VQLCQGWIGSES | 0.676 ± 0.0089
VQRKVCTFRRSD | 0.665 ± 0.14
VQSSLFGLGVQC | 0.566 ± 0.033
VQTLYSQLPALR | 0.78 ± 0.069
VQWSRFRVGMAE | 0.848 ± 0.19
VRAGLAGGPGRV | 0.684 ± 0.024
VRAWIGDVENGV | 0.574 ± 0.058
VRCGCDFRVSRC | 0.717 ± 0.062
VRCLGAVEDCLS | 0.657 ± 0.013
VRDGGLCYLAQL | 0.667 ± 0.019
VREQRLPLARRV | 0.706 ± 0.07
VRFGWCLGSGDG | 0.702 ± 0.068
VRFLWWGLFWGW | 0.499 ± 0.016
VRFPVEPYEAMF | 0.71 ± 0.0097
VRFSVKPAFVRV | 0.577 ± 0.032
VRGDRRHRGVWG | 0.709 ± 0.066
VRGGGSREERGC | 0.639 ± 0.061

Sequence | protein stability index
VRGRREGVADER | 0.712 ± 0.084
VRGSLFGICSAL | 0.705 ± 0.06
VRPPRLSSCLLS | 0.656 ± 0.024
VRPRSSSQRPTP | 0.689 ± 0.011
VRQCSSGFRGAF | 0.674 ± 0.07
VRRPSPSGGWLR | 0.73 ± 0.051
VRRWCQFLGCCG | 0.682 ± 0.0081
VRSSELFNGVWC | 0.736 ± 0.093
VRVCRSVGAGMT | 0.649 ± 0.034
VRVCWGCCGVVF | 0.51 ± 0.024
VRWIEYDVKGWA | 0.71 ± 0.011
VSAPRPPPAPSP | 0.786 ± 0.1
VSCGRVGVARLG | 0.641 ± 0.016
VSCLFFFVSIPF | 0.5176 ± 0.0035
VSEVDVRGKGIR | 0.783 ± 0.068
VSFRRFKFKVKM | 0.661 ± 0.061
VSGLDSLHPSSN | 0.717 ± 0.034
VSGNLITLRCFT | 0.59604 ± 0.00021
VSKLTRHLWANQ | 0.61 ± 0.094
VSLGRRGDRGLC | 0.719 ± 0.031
VSMPIVPWPLLQ | 0.54 ± 0.016
VSNTSAWLLWIS | 0.629 ± 0.032
VSPLRGSRAPFP | 0.744 ± 0.068
VSRDVMYLGLGG | 0.721 ± 0.18
VSRGGAVRLSTQ | 0.7027 ± 0.0027
VSRGGWLKWDEG | 0.66 ± 0.028

Sequence | protein stability index
VSRITSRFEKKM | 0.592 ± 0.0086
VSRRSGVGICHL | 0.609 ± 0.13
VSRVWAHFGFCG | 0.707 ± 0.02
VSSCSGVLLCVP | 0.544 ± 0.016
VSSPRLSPRLLY | 0.775 ± 0.084
VSSSLPVHLSLS | 0.717 ± 0.037
VSSVGILPFRFN | 0.72 ± 0.077
VSVIRIVPPEFI | 0.672 ± 0.03
VSVLVAFDTLPG | 0.711 ± 0.034
VSVVGDVWGYGG | 0.753 ± 0.068
VSYFARCLGSLA | 0.629 ± 0.0011
VTCGVGQHAAIA | 0.731 ± 0.053
VTFRTFFVPTFK | 0.662 ± 0.097
VTNGGGMGWYRR | 0.652 ± 0.078
VTPLPSLPHHRA | 0.604 ± 0.041
VTPVQFMFRLHF | 0.646 ± 0.054
VTSSIQNRCTSC | 0.706 ± 0.076
VVALTSVRSRDV | 0.6759 ± 0.0013
VVALVLVGRHGG | 0.597 ± 0.041
VVARLERAGLGG | 0.766 ± 0.094
VVCGARGDGRCE | 0.6834 ± 0.0068
VVCSTRRPSLGS | 0.681 ± 0.03
VVCVGAEVGEGG | 0.7197 ± 0.0067
VVEKKKKKKNNK | 0.73 ± 0.041
VVGGAWTEAGGG | 0.632 ± 0.035
VVHGIGLIYTGG | 0.68 ± 0.041

Sequence | protein stability index
VVHVGVWGLGRG | 0.64819 ± 0.00032
VVIFYSSESRRR | 0.724 ± 0.03
VVISRTPAALES | 0.697 ± 0.013
VVLCAALHRTYG | 0.638 ± 0.012
VVLGGGVGRGCW | 0.691 ± 0.13
VVPYRCQRLGDG | 0.686 ± 0.061
VVRARLYVWWLG | 0.664 ± 0.13
VVRGPSGAGRAG | 0.665 ± 0.052
VVRWRMGLFGGR | 0.654 ± 0.013
VVSAIISGLSIK | 0.733 ± 0.0088
VVSDGRSYGLLK | 0.73703 ± 0.00014
VVSEQLDRGMRF | 0.694 ± 0.039
VVVRRSEVGGRV | 0.65 ± 0.095
VVWGAWGGWGCW | 0.726 ± 0.056
VVWSGWGCGGVR | 0.619 ± 0.015
VWAVGRATARER | 0.6969 ± 0.0025
VWAWGDGGGAVV | 0.728 ± 0.051
VWDGLAVAATCS | 0.597 ± 0.085
VWFEAGLGWFFL | 0.721 ± 0.047
VWFGAGSYSFLC | 0.5683 ± 0.0016
VWGGGLLVGAGW | 0.669 ± 0.035
VWRSTVRVSRAG | 0.763 ± 0.051
VWSWVDSFCRGG | 0.744 ± 0.042
VWVEVDGLLVVV | 0.534 ± 0.043
VWVQISGRLNWK | 0.709 ± 0.06
VWVVGADEDAVR | 0.698 ± 0.03

Sequence | protein stability index
VYFFSSIFRCFV | 0.544 ± 0.048
VYFLWPRFVCDA | 0.585 ± 0.044
VYLRSMLSLNIR | 0.676 ± 0.051
VYPRNLPGSVPL | 0.666 ± 0.02
VYPRRLLPSRGL | 0.668 ± 0.098
VYQLTKNERVIK | 0.643 ± 0.1
VYRRGESRTHGD | 0.682 ± 0.018
VYSVDGGKTVLD | 0.669 ± 0.028
VYTIHECADMLY | 0.712 ± 0.045
VYVLHNVMCSSD | 0.632 ± 0.051
VYYDSVVSLSGA | 0.661 ± 0.079
WAARPSATGDRC | 0.664 ± 0.042
WAAWGGGEAWGV | 0.698 ± 0.047
WAFYFPWSSSLM | 0.726 ± 0.036
WAGGANGEWGEW | 0.8097 ± 0.0021
WARGGRVDDGGG | 0.62 ± 0.057
WATPRPCQMVPS | 0.567 ± 0.038
WAVLLQGSRDLW | 0.788 ± 0.016
WCAGLATAIQLR | 0.636 ± 0.053
WCECGVWVGLWG | 0.732 ± 0.059
